According to patent US20220112285A1 (UNIVERSITY OF BIRMINGHAM, published 2022):
Each block holds one binder with its values, some of them ahead of it.

Key:
[1] = molecular target: the molecule itself; test: X-ray crystal structure; dimer believed to result from binding of the heparin oligosaccharide DP12
Procedure: The preformed G6b-B:Fab complex at 12 mg/ml, in a buffer solution of 20 mM HEPES, 75 mM NaCl, pH 7.1 was incubated for 1 hour at 4° C. with 2 mM DP12 (Iduron Cat. No. HO12). This protein sample was then microfuged at 16,000 g, for 10 minutes at 4° C., before drops were set up using 150 nl sample and 100 nl reservoir solution. Reservoir conditions were 50 mM MES pH6.2, 10% PEG 550MME, 5% glycerol, and 50 mM CaCl₂. Crystallisation plates were incubated at 20° C. and flat plate crystals appeared within 3 days. The crystal was harvested straight out of the growth drop into liquid nitrogen. Diffraction data were collected at 100K on beamline 103 at Diamond Light Source and processed by XDS1 and Aimless2 via AutoPROC3. The crystal had the space group C2 with the cell dimensions of a=183.80, b=72.34, c=131.04, alpha=90.0°, beta=124.52°, gamma=90.0°, and gave a 97% complete dataset to 3.1 Å.

[2] = molecular target: T1, recombinant dimeric human G6b-B (human, UniProt O95866 18-142, limits assumed); test: Fab as analyte over a G6b-B dimer channel (RU read-out; method not named), two stage reaction model
T1 construct: also called G6b-B dimer; dimeric G6b-B
T1 sequence (looked up): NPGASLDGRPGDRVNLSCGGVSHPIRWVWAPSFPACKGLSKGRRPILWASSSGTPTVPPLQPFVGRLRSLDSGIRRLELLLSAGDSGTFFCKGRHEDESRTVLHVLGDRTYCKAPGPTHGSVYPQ

[3] = molecular target: T2, recombinant monomeric human G6b-B (human, UniProt O95866 18-142, limits assumed); test: Fab as analyte over a G6b-B monomer channel (RU read-out; method not named), two stage reaction model
T2 construct: also called G6b-B monomer; monomeric G6b-B
T2 sequence (looked up): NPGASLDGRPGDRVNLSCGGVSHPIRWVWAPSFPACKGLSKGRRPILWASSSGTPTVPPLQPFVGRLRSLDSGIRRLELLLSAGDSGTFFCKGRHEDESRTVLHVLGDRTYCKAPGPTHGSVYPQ

[4] = molecular target: T3, mouse G6b-B (mouse, UniProt D7PDD4 18-140, limits assumed); test: plate binding assay (coated protein, HRP anti-mouse IgG, TMB, A450), FIG. 8
T3 construct: construct not described
T3 sequence (looked up): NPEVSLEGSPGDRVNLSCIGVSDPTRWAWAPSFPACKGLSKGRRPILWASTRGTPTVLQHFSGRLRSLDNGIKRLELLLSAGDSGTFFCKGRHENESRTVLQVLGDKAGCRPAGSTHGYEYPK
Procedure: FIG. 8—illustrates that the 17-4 antibody robustly binds to recombinant monomeric and dimeric human G6b-B, but not to mouse G6b-B in an in vitro binding assay. Wells of 96-well plate were coated with the indicated proteins overnight. Following blocking, wells were incubated with the indicated anti-G6b monoclonal antibodies (10 μg/ml) or IgG control. Antibody binding was detected with HRP-conjugated anti-mouse antibody and 3,3,5,5-tetramethylbenzidine (TMB) substrate; absorbance was measured with a plate reader at 450 nm.
Wells of 96-well Nunc MaxiSorp™ plates (Thermo Scientific) were coated overnight with 50 μl of indicated proteins, diluted in PBS at a concentration of 5 μg/ml. Plates were washed three times with Tris buffered saline (TBS) containing 0.1% Tween 20 (TBS-T) and blocked for 1.5 h at 37° C. with 2% fat free milk in TBS, 0.02% Tween 20. After one washing step, wells were incubated with the indicated anti-G6b monoclonal antibodies (10 μg/ml) or IgG control, diluted in 3% BSA in TBS-T for 1.5 h at RT. After five washing steps, wells were incubated with HRP-conjugated anti-mouse IgG antibody (Sigma) for 1 h at RT at low agitation. Plates were washed seven times and signals were developed with TMB. The reaction was stopped by addition of 2 M H₂SO₄ (50 μl/well) and absorbance at 450 nm and 570 nm (background) was measured with a Versa max plate reader (Molecular Devices).

B1: G6b-B ECD (18-133, [N32D, S67A, S68A, S69A, T71A]) (receptor, human, UniProt O95866 18-133, looked up)
chain: NPGASLDGRPGDRVDLSCGGVSHPIRWVWAPSFPACKGLSKGRRPILWAAAAGAPTVPPLQPFVGRLRSLDSGIRRLELLLSAGDSGTFFCKGRHEDESRTVLHVLGDRTYCKAPG
notes: Expressed in HEK293 6E cells and used for the crystal structure with the 17-4 Fab and the heparin oligosaccharide DP12; also called G6b ECD; G6b-ECD
binding result [1]: binds

Kd [2]: 0.262 nM | Kd [3]: 0.126 nM
B2: His-tagged recombinant anti-G6b-B Fab fragment of antibody 17-4 (Fab, V domains shown)
VH: EVQLQQSGAELVKPGASVKLSCTASGFNIKETYIHWVKQRPEQGLEWIGRIDPADVYGRYDPKFQGKATITADTSSNSAYLQVSSLTSEDTAVYYCARSYGSSYGIDYWGQGTSVTVSS
VL: DIQMTQTTSSLSASLGDRVTISCRASQDISNYLNWYQQKPDGTVKLLIYYTSTLHSGVPSRFSGSGSGTDYSLTISNLEQEDVATYFCQQGYTLPWTFGGGTKLEIKR
notes: also called 17-4 Fab; 17-4 Fabs

binding result [4]: no binding (tested: 10 µg/ml)
B3: anti-G6b mouse monoclonal antibody 17-4 (antibody, mouse IgG1, kappa, V domains shown)
VH: EVQLQQSGAELVKPGASVKLSCTASGFNIKETYIHWVKQRPEQGLEWIGRIDPADVYGRYDPKFQGKATITADTSSNSAYLQVSSLTSEDTAVYYCARSYGSSYGIDYWGQGTSVTVSS
VL: DIQMTQTTSSLSASLGDRVTISCRASQDISNYLNWYQQKPDGTVKLLIYYTSTLHSGVPSRFSGSGSGTDYSLTISNLEQEDVATYFCQQGYTLPWTFGGGTKLEIKR
notes: The entries may include leader peptides, since VH CDR2 residues are numbered 69 and 71; no cleavage site is stated; also called exemplary antibody 17-4; mAb 17-4
